The source of these data is patent US20190144558A1 (MAGENTA THERAPEUTICS, published 2019).

The chains are these.
B1: Antibody 58 (antibody, human IgG1, kappa, V domains shown)
VH: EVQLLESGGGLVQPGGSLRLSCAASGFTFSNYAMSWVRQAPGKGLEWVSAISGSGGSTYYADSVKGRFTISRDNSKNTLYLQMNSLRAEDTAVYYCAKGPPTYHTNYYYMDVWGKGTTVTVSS
VL: DIQMTQSPSSVSASVGDRVTITCRASQGISSWLAWYQQKPGKAPKLLIYAASSLQSGVPSRFSGSGSGTDFTLTISSLQPEDFATYYCQQTNSFPYTFGGGTKVEIKR
notes: also called Ab58; HC-58/LC-58
B2: Antibody 61 (antibody, human IgG1, kappa, V domains shown)
VH: EVQLLESGGGLVQPGGSLRLSCAASGFTFSSYVMIWVRQAPGKGLEWVSSISGDSVTTYYADSVKGRFTISRDNSKNTLYLQMNSLRAEDTAVYYCAKGPPTYHTNYYYMDVWGKGTTVTVSS
VL: DIQMTQSPSSVSASVGDRVTITCRASQGISSWLAWYQQKPGKAPKLLIYAASSLQSGVPSRFSGSGSGTDFTLTISSLQPEDFATYYCQQTNSFPYTFGGGTKVEIKR
notes: also called Ab61; HC-61/LC-61
B3: Antibody 56 (antibody, human IgG1, kappa, V domains shown)
VH: QVQLVQSGAEVKKPGSSVKVSCKASGGTFSLYAISWVRQAPGQGLEWMGGIIPAFGTANYAQKFQGRVTITADESTSTAYMELSSLRSEDTAVYYCARGGLDTDEFDLWGRGTLVTVSS
VL: DIQMTQSPSSLSASVGDRVTITCRASQSINSYLNWYQQKPGKAPKLLIYAASSLQSGVPSRFSGSGSGTDFTLTISSLQPEDFATYYCQQGVSDITFGGGTKVEIKR
notes: also called Ab56; HC-56/LC-56
B4: Antibody 57 (antibody, human IgG1, kappa, V domains shown)
VH: QVQLVQSGAEVKKPGSSVKVSCKASGGTFSLYAISWVRQAPGQGLEWMGGIIPHFGLANYAQKFQGRVTITADESTSTAYMELSSLRSEDTAVYYCARGGLDTDEFDLWGRGTLVTVSS
VL: DIQMTQSPSSLSASVGDRVTITCRASQSINSYLNWYQQKPGKAPKLLIYAASSLQSGVPSRFSGSGSGTDFTLTISSLQPEDFATYYCQQGVSDITFGGGTKVEIKR
notes: also called Ab57; HC-57/LC-57
B5: Antibody 54 (antibody, human IgG1, kappa, V domains shown)
VH: QVQLVQSGAEVKKPGSSVKVSCKASGGTFSSYAISWVRQAPGQGLEWMGGIIPIFGTANYAQKFQGRVTITADESTSTAYMELSSLRSEDTAVYYCARGGLDTDEFDLWGRGTLVTVSS
VL: DIQMTQSPSSLSASVGDRVTITCRASQSINSYLNWYQQKPGKAPKLLIYAASSLQSGVPSRFSGSGSGTDFTLTISSLQPEDFATYYCQQGVSDITFGGGTKVEIKR
notes: also called Ab54; HC-54/LC-54
B6: Antibody 55 (antibody, human IgG1, kappa, V domains shown)
VH: QVQLVQSGAEVKKPGSSVKVSCKASGGTFRIYAISWVRQAPGQGLEWMGGIIPDFGVANYAQKFQGRVTITADESTSTAYMELSSLRSEDTAVYYCARGGLDTDEFDLWGRGTLVTVSS
VL: DIQMTQSPSSLSASVGDRVTITCRASQSINSYLNWYQQKPGKAPKLLIYAASSLQSGVPSRFSGSGSGTDFTLTISSLQPEDFATYYCQQGVSDITFGGGTKVEIKR
notes: also called Ab55; HC-55/LC-55
B7: Antibody 67 (antibody, human IgG1, kappa, V domains shown)
VH: EVQLVESGGGLVQPGGSLRLSCAASGFTFSDADMDWVRQAPGKGLEWVGRTRNKAGSYTTEYAASVKGRFTISRDDSKNSLYLQMNSLKTEDTAVYYCAREPKYWIDFDLWGRGTLVTVSS
VL: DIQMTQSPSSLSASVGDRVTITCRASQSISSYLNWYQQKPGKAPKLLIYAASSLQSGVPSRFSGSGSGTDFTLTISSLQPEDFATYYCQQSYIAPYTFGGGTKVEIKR
notes: also called Ab67; HC-67/LC-67
B8: Antibody 69 (antibody, human IgG1, kappa, V domains shown)
VH: EVQLVESGGGLVQPGGSLRLSCAASGFTFVDHDMDWVRQAPGKGLEWVGRTRNKLGSYTTEYAASVKGRFTISRDDSKNSLYLQMNSLKTEDTAVYYCAREPKYWIDFDLWGRGTLVTVSS
VL: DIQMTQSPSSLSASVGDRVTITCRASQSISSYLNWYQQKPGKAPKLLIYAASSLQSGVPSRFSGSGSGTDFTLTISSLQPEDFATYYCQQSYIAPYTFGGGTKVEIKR
notes: also called Ab69; HC-69/LC-69
B9: Antibody 68 (antibody, human IgG1, kappa, V domains shown)
VH: EVQLVESGGGLVQPGRSLRLSCTASGFTFSDHDMNWVRQAPGKGLEWVGRTRNAAGSYTTEYAASVKGRFTISRDDSKNSLYLQMNSLKTEDTAVYYCAREPKYWIDFDLWGRGTLVTVSS
VL: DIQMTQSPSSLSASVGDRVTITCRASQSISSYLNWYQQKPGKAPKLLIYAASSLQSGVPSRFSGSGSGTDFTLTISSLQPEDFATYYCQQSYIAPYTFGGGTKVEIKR
notes: also called Ab68; HC-68/LC-68
B10: Antibody 66 (antibody, human IgG1, kappa, V domains shown)
VH: EVQLVESGGGLVQPGGSLRLSCAASGFTFSDHYMDWVRQAPGKGLEWVGRTRNKASSYTTEYAASVKGRFTISRDDSKNSLYLQMNSLKTEDTAVYYCAREPKYWIDFDLWGRGTLVTVSS
VL: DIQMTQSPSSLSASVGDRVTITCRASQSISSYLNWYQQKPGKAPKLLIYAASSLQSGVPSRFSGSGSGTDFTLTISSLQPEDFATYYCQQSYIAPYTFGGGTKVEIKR
notes: also called Ab66; HC-66/LC-66

For the assay, the target named is T1, rhesus CD117 ectodomain (rhesus, UniProt F6V858 26-524).
T1 construct: extracellular domain
Put plainly: BLI (Octet Red96), IgG on anti-human Fc sensors, rhesus CD117 ectodomain at 33.3 and 11 nM, 1:1 fit.
Procedure: Antibody binding studies were performed at 25 degrees celsius in 1×PBS supplemented with 0.1% w/v bovine serum albumin with a Pall ForteBio Octet Red96 using biolayer interferometry (BLI).
Take B1: the Kd was 30.3 nM, the dissociation rate constant (koff) is 0.00855 s⁻¹ and the kon was found to be 282000 M⁻¹ s⁻¹.

B2: the Kd stood at 20.5 nM, the koff was found to be 0.00472 s⁻¹ and the kon is 230000 M⁻¹ s⁻¹.

In the case of B3, the Kd worked out at 0.28 nM, the off-rate constant (koff) was found to be 8.57e-05 s⁻¹ and the kon came to 306000 M⁻¹ s⁻¹.

In the case of B4, the Kd was 0.288 nM, the dissociation rate constant (koff) came to 8.57e-05 s⁻¹ and the kon was found to be 298000 M⁻¹ s⁻¹.

Take B5: the Kd was 2.6 nM, the koff stood at 0.000793 s⁻¹ and the kon turned out to be 304000 M⁻¹ s⁻¹.

In turn, B6 displayed an equilibrium dissociation constant (Kd) of 0.284 nM, a koff of 8.96e-05 s⁻¹ and an on-rate constant (kon) of 315000 M⁻¹ s⁻¹.

Take B7: the Kd is 0.376 nM, the koff worked out at 8.57e-05 s⁻¹ and the on-rate (kon) was determined as 228000 M⁻¹ s⁻¹.

The molecule B8 had a dissociation constant Kd of 0.528 nM, a koff of 0.000126 s⁻¹ and a kon of 240000 M⁻¹ s⁻¹.

Regarding B9, the Kd turned out to be 0.374 nM, the koff came out at 8.98e-05 s⁻¹ and the kon is 240000 M⁻¹ s⁻¹.

B10 came in with a Kd of 66 nM, a koff of 0.0258 s⁻¹ and a kon of 391000 M⁻¹ s⁻¹.
